Results taken from PMC4074165.
Read-outs that look alike come from different tables or passages of the source.

B1: P2-3 (ssRNA)
RNA: GGGAAAUGGUAGGGAGACAAAUAUACAUGUGAAAUAAACUCAGUAUUUUAAUAAAGU
B2: P1-1-mut3 (hinge U to C) (ssRNA)
RNA: GGGGAAAAGGGUUUAAACAGUUUGAAAUAUUCCGCCCCCACCCCCGUAAUAGUUA
B3: P1-1-mut1 (E1 U to C) (ssRNA)
RNA: GGGGAAAAGGGUUUAAACAGCCCGAAACACCCUGUCUUCAUUUCUGUAAUAGUUA
B4: P1-1 (ssRNA)
RNA: GGGGAAAAGGGUUUAAACAGUUUGAAAUAUUCUGUCUUCAUUUCUGUAAUAGUUA
B5: P2-1 (ssRNA)
RNA: GGGCCUGUUUAGUUUUCAAGGAUGGAACUCCACCCUUUACUUGGUUUUAAGU
B6: P2-2 (ssRNA)
RNA: GGGAGUAUGUAUGGAAUGUUAUGAUAGGACAUAGUAAUAGUGGUCAGAUGUGGAAA
B7: P1-1-mut2 (E2 U to C) (ssRNA)
RNA: GGGGAAAAGGGUUUAAACAGUUUGAAAUAUUCUGUCUUCAUUUCUGCAACAGCCA
B8: P1-3 (ssRNA)
RNA: GGGUACUGUGUUUGAUAAAUGUUGUCCAGGUUCACUUGCCAAGAAUGUGUUGUCUAAAAUG

How the values were obtained:
Experiment in all cases: EMSA
GST-HuR [1] = biological target: T1, GST-HuR (UniProt Q15717 1-326)
GST-HuR [2] = biological target: T1, GST-HuR; remark: listed apart in the source
GST-HuR [3] = biological target: T1, GST-HuR; remark: listed apart in the source
GST-HuR [4] = biological target: T1, GST-HuR; remark: listed apart in the source

T1 sequence (Q15717 whole entry): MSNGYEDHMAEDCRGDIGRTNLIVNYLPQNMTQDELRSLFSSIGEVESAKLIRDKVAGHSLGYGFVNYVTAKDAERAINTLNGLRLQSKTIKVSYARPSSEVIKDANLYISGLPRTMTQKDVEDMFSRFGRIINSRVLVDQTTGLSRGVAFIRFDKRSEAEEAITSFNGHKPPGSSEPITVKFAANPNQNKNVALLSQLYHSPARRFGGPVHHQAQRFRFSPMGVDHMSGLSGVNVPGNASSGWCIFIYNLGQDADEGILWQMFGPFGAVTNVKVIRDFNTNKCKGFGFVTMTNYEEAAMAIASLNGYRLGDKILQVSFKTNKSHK

Row | Binder | binding result (GST-HuR [1]) | other results
1 | B1 | no binding | 
2 | B2 |  | binding result (GST-HuR [2]): binds
3 | GGGAUAUCUGGCUGUCCUUUUUAUAAUGCAAAGUGAGAACUUUCCCUAC (ssRNA) [P1-2] | no binding | 
4 | B3 |  | binding result (GST-HuR [3]): no binding
5 | B4 | binds | 
6 | B5 | no binding | 
7 | B6 | no binding | 
8 | B7 |  | binding result (GST-HuR [4]): no binding
9 | B8 | no binding | 
